Laboratory results reported in US12281147.
Blank lines part the entries; values can stand above or below the substance they belong to.

Tests used:
[1] = biological target: human interleukin 21 receptor (IL-21R) (human) (UniProt Q9HBE5); test: AlphaSeq yeast mating, pH 6 media
[2] = biological target: human interleukin 21 receptor (IL-21R) (human) (UniProt Q9HBE5); test: AlphaSeq yeast mating, pH 5 media
[3] = biological target: human interleukin 21 receptor (IL-21R) (human) (UniProt Q9HBE5); test: AlphaSeq yeast mating, unbuffered media
[4] = biological target: recombinant human IL-21R His tag (Acro Biosystems) (human) (UniProt Q9HBE5); test: BLI
[5] = biological target: wild-type human IL-21R (human) (UniProt Q9HBE5); test: AlphaSeq yeast mating assay, pH 6 media
[6] = biological target: wild-type human IL-21R (human) (UniProt Q9HBE5); test: AlphaSeq yeast mating assay, unbuffered media
[7] = biological target: wild-type human IL-21R (human) (UniProt Q9HBE5); test: AlphaSeq yeast mating assay, pH 5 media
[8] = biological target: human IL-21R (human) (UniProt Q9HBE5); test: AlphaSeq yeast mating assay, pH 7 media
[9] = biological target: human IL-21R (human) (UniProt Q9HBE5); test: AlphaSeq yeast mating assay, unbuffered media
[10] = biological target: human IL-21R (human) (UniProt Q9HBE5); test: AlphaSeq yeast mating assay, pH 5 media
[11] = biological target: human IL-21R (human) (UniProt Q9HBE5); test: AlphaSeq yeast mating assay, pH 6 media

Kd [1]: 0.092 µM
Kd [2]: 1.2 µM
Kd [3]: 60 µM
Substance: IL-21_D44N (from UniProt Q9HBE4 32-152) (ligand)

Kd [4]: 1.36 µM
Substance: IL-21_human_D44P Fc fusion protein (from UniProt Q9HBE4 30-162)

Kd [1]: 0.025 µM
Kd [3]: 8.4 µM
Substance: IL-21_I45A (from UniProt Q9HBE4 32-152) (ligand)

Kd [5]: 0.027 µM
Kd [6]: 3.5 µM
Kd [7]: 0.11 µM
Substance: IL-21_I43M (from UniProt Q9HBE4 32-152) (ligand)

Kd [6]: 3.2 µM
Kd [7]: 0.058 µM
Substance: IL-21_I37V (from UniProt Q9HBE4 32-152) (ligand)

Kd [8]: 0.12 µM
Kd [9]: 110 µM
Kd [10]: 11 µM
Substance: IL-21_P62V (from UniProt Q9HBE4 32-152) (ligand)

Kd [5]: 0.021 µM
Kd [6]: 7.5 µM
Kd [7]: 0.084 µM
Substance: IL-21_D33Q (from UniProt Q9HBE4 32-152) (ligand)

Kd [4]: 0.313 µM
Substance: IL-21_human_R38K Fc fusion protein (from UniProt Q9HBE4 30-162)

Kd [4]: 0.012 µM
Substance: IL-21_human_I45G Fc fusion protein (from UniProt Q9HBE4 30-162)

Kd [8]: 0.11 µM
Kd [9]: 69 µM
Kd [10]: 4.4 µM
Substance: IL-21_Y52H (from UniProt Q9HBE4 32-152) (ligand)

Kd [1]: 0.026 µM
Kd [2]: 0.17 µM
Kd [3]: 8.8 µM
Substance: IL-21_V98H (from UniProt Q9HBE4 32-152) (ligand)

Kd [5]: 0.35 µM
Kd [6]: 3.4 µM
Kd [7]: 6.7 µM
Substance: IL-21_R34Y (from UniProt Q9HBE4 32-152) (ligand)

Kd [8]: 0.24 µM
Kd [9]: 240 µM
Kd [10]: 54 µM
Substance: IL-21_L56F (from UniProt Q9HBE4 32-152) (ligand)

Kd [2]: 0.034 µM
Substance: IL-21_L120H (from UniProt Q9HBE4 32-152) (ligand)

Kd [11]: 0.015 µM
Kd [8]: 0.035 µM
Kd [9]: 2.4 µM
Kd [10]: 0.062 µM
Substance: IL-21_F60H (from UniProt Q9HBE4 32-152) (ligand)

Kd [1]: 0.054 µM
Kd [2]: 1 µM
Kd [3]: 32 µM
Substance: IL-21_Q145H (from UniProt Q9HBE4 32-152) (ligand)

Kd [4]: 0.0063 µM
Substance: IL-21_human_W73V Fc fusion protein (from UniProt Q9HBE4 30-162)

Kd [4]: 0.029 µM
Substance: IL-21_human_P108G Fc fusion protein (from UniProt Q9HBE4 30-162)

Kd [11]: 0.021 µM
Kd [8]: 0.059 µM
Kd [9]: 0.96 µM
Kd [10]: 0.056 µM
Substance: IL-21_Q150D (from UniProt Q9HBE4 32-152) (ligand)

Kd [3]: 46 µM
Substance: IL-21_S77R (from UniProt Q9HBE4 32-152) (ligand)

Kd [1]: 0.047 µM
Kd [2]: 0.39 µM
Kd [3]: 14 µM
Substance: IL-21_R34K (from UniProt Q9HBE4 32-152) (ligand)

Kd [1]: 0.15 µM
Kd [2]: 6.4 µM
Kd [3]: 9.9 µM
Substance: IL-21_R34G (from UniProt Q9HBE4 32-152) (ligand)

Kd [11]: 5 µM
Kd [8]: 1.2 µM
Kd [9]: 330 µM
Substance: IL-21_I45G (from UniProt Q9HBE4 32-152) (ligand)

Kd [11]: 0.43 µM
Kd [8]: 0.081 µM
Kd [9]: 2.5 µM
Substance: IL-21_S109M (from UniProt Q9HBE4 32-152) (ligand)

Kd [5]: 0.015 µM
Kd [6]: 4.7 µM
Substance: IL-21_E72I (from UniProt Q9HBE4 32-152) (ligand)

Kd [8]: 20 µM
Kd [9]: 270 µM
Kd [10]: 260 µM
Substance: IL-21_R105A (from UniProt Q9HBE4 32-152) (ligand)

Kd [3]: 27 µM
Substance: IL-21_K131M (from UniProt Q9HBE4 32-152) (ligand)

Kd [6]: 8 µM
Kd [7]: 0.19 µM
Substance: IL-21_N54K (from UniProt Q9HBE4 32-152) (ligand)

Kd [11]: 0.052 µM
Kd [8]: 0.24 µM
Kd [9]: 240 µM
Kd [10]: 0.14 µM
Substance: IL-21_D44A (from UniProt Q9HBE4 32-152) (ligand)

Kd [11]: 0.02 µM
Kd [8]: 0.056 µM
Kd [9]: 1.4 µM
Kd [10]: 0.047 µM
Substance: IL-21_V53S (from UniProt Q9HBE4 32-152) (ligand)

Kd [11]: 0.027 µM
Kd [8]: 0.057 µM
Kd [9]: 2.8 µM
Substance: IL-21_E72T (from UniProt Q9HBE4 32-152) (ligand)

Kd [8]: 0.33 µM
Kd [9]: 150 µM
Kd [10]: 57 µM
Substance: IL-21_W73G (from UniProt Q9HBE4 32-152) (ligand)

Kd [5]: 0.085 µM
Kd [7]: 0.19 µM
Substance: IL-21_W73Y (from UniProt Q9HBE4 32-152) (ligand)

Kd [11]: 0.021 µM
Kd [8]: 0.08 µM
Kd [9]: 1 µM
Kd [10]: 0.058 µM
Substance: IL-21_A112P (from UniProt Q9HBE4 32-152) (ligand)

Kd [8]: 0.027 µM
Kd [9]: 2.8 µM
Kd [10]: 0.1 µM
Substance: IL-21_P62S (from UniProt Q9HBE4 32-152) (ligand)

Kd [11]: 67 µM
Kd [8]: 5.4 µM
Kd [9]: 550 µM
Substance: IL-21_L42H (from UniProt Q9HBE4 32-152) (ligand)

Kd [11]: 0.19 µM
Kd [8]: 0.12 µM
Kd [9]: 95 µM
Kd [10]: 3.3 µM
Substance: IL-21_I37K (from UniProt Q9HBE4 32-152) (ligand)

Kd [4]: 0.00786 µM
Substance: IL-21_human_V53T Fc fusion protein (from UniProt Q9HBE4 30-162)

Kd [1]: 0.026 µM
Kd [2]: 0.043 µM
Kd [3]: 40 µM
Substance: IL-21_S109K (from UniProt Q9HBE4 32-152) (ligand)

Kd [2]: 0.051 µM
Kd [3]: 11 µM
Substance: IL-21_S142H (from UniProt Q9HBE4 32-152) (ligand)

Kd [6]: 7.9 µM
Kd [7]: 0.039 µM
Substance: IL-21_A112R (from UniProt Q9HBE4 32-152) (ligand)

Kd [11]: 260 µM
Kd [8]: 71 µM
Kd [9]: 1000 µM
Substance: IL-21_V46Q (from UniProt Q9HBE4 32-152) (ligand)

Kd [3]: 46 µM
Substance: IL-21_V53H (from UniProt Q9HBE4 32-152) (ligand)

Kd [11]: 7 µM
Kd [8]: 6.9 µM
Kd [9]: 110 µM
Kd [10]: 59 µM
Substance: IL-21_F79E (from UniProt Q9HBE4 32-152) (ligand)

Kd [11]: 31 µM
Kd [8]: 7.8 µM
Kd [9]: 240 µM
Kd [10]: 150 µM
Substance: IL-21_M39G (from UniProt Q9HBE4 32-152) (ligand)

Kd [11]: 0.035 µM
Kd [8]: 0.12 µM
Kd [9]: 1.1 µM
Kd [10]: 0.2 µM
Substance: IL-21_R34Q (from UniProt Q9HBE4 32-152) (ligand)

Kd [6]: 3 µM
Kd [7]: 0.081 µM
Substance: IL-21_R139S (from UniProt Q9HBE4 32-152) (ligand)

Kd [6]: 3.1 µM
Kd [7]: 0.11 µM
Substance: IL-21_M36T (from UniProt Q9HBE4 32-152) (ligand)

Kd [11]: 0.53 µM
Kd [8]: 0.32 µM
Kd [9]: 240 µM
Kd [10]: 16 µM
Substance: IL-21_I37S (from UniProt Q9HBE4 32-152) (ligand)

Kd [11]: 0.012 µM
Kd [8]: 0.028 µM
Kd [9]: 2.7 µM
Kd [10]: 0.027 µM
Substance: IL-21_Q32K (from UniProt Q9HBE4 33-152) (ligand)

Kd [5]: 0.016 µM
Kd [7]: 0.041 µM
Substance: IL-21_E59S (from UniProt Q9HBE4 32-152) (ligand)

Kd [5]: 0.015 µM
Kd [6]: 6 µM
Kd [7]: 0.036 µM
Substance: IL-21_S109R (from UniProt Q9HBE4 32-152) (ligand)

Kd [11]: 60 µM
Kd [8]: 35 µM
Kd [9]: 580 µM
Substance: IL-21_I96D (from UniProt Q9HBE4 32-152) (ligand)

Kd [5]: 0.016 µM
Kd [6]: 6.3 µM
Kd [7]: 0.04 µM
Substance: IL-21_E68R (from UniProt Q9HBE4 32-152) (ligand)

Kd [5]: 0.012 µM
Kd [6]: 4.4 µM
Kd [7]: 0.026 µM
Substance: IL-21_L152H (from UniProt Q9HBE4 32-151) (ligand)

Kd [4]: 0.0871 µM
Substance: IL-21_human_V53N Fc fusion protein (from UniProt Q9HBE4 30-162)

Kd [4]: 0.0111 µM
Substance: IL-21_human_F79P Fc fusion protein (from UniProt Q9HBE4 30-162)

Kd [3]: 31 µM
Substance: IL-21_V53E (from UniProt Q9HBE4 32-152) (ligand)

Kd [11]: 0.094 µM
Kd [8]: 0.25 µM
Kd [9]: 150 µM
Substance: IL-21_V98K (from UniProt Q9HBE4 32-152) (ligand)

Kd [5]: 0.058 µM
Kd [6]: 6.5 µM
Kd [7]: 0.12 µM
Substance: IL-21_P107Y (from UniProt Q9HBE4 32-152) (ligand)

Kd [11]: 30 µM
Kd [8]: 10 µM
Kd [9]: 890 µM
Substance: IL-21_W73K (from UniProt Q9HBE4 32-152) (ligand)

Kd [8]: 28 µM
Kd [9]: 730 µM
Kd [10]: 340 µM
Substance: IL-21_V46K (from UniProt Q9HBE4 32-152) (ligand)

Kd [11]: 5.7 µM
Kd [8]: 3 µM
Kd [9]: 270 µM
Substance: IL-21_I96P (from UniProt Q9HBE4 32-152) (ligand)

Kd [11]: 2 µM
Kd [8]: 0.53 µM
Kd [9]: 330 µM
Kd [10]: 72 µM
Substance: IL-21_F79Y (from UniProt Q9HBE4 32-152) (ligand)

Kd [3]: 15 µM
Substance: IL-21_D33T (from UniProt Q9HBE4 32-152) (ligand)

Kd [5]: 0.02 µM
Kd [6]: 4.4 µM
Substance: IL-21_N70H (from UniProt Q9HBE4 32-152) (ligand)

Kd [2]: 9.6 µM
Kd [3]: 30 µM
Substance: IL-21_V53T (from UniProt Q9HBE4 32-152) (ligand)

Kd [4]: 0.0118 µM
Substance: IL-21_human_F76M Fc fusion protein (from UniProt Q9HBE4 30-162)

Kd [6]: 3.3 µM
Kd [7]: 0.027 µM
Substance: IL-21_E68K (from UniProt Q9HBE4 32-152) (ligand)
